Substitutions are numbered along the chain they refer to. Names and notes keep the numbering of the source.
B1: AtPYR1 (size-exclusion chromatography, with or without ABA) (receptor, Arabidopsis, UniProt O49686 9-182, looked up)
chain: ERSELKNSIAEFHTYQLDPGSCSSLHAQRIHAPPELVWSIVRRFDKPQTYKHFIKSCSVEQNFEMRVGCTRDVIVISGLPANTSTERLDILDDERRVTGFSIIGGEHRLTNYKSVTTVHRFEKENRIWTVVLESYVVDMPEGNSEDDTRMFADTVVKLNLQKLATVAEAMARNS
notes: Arabidopsis ABA receptor PYR1; also called AtPYR1-apo; source: E. coli, purified
B2: H6-SUMO-tagged FePYR1 E131A (protein)
chain: MEQQPAAAEPEVPAGLGLTAAEYAELQPTVEAYHRYAVGPGQCSSLVAQRIEAPAAAVWAIVRRFDCPQVYKHFIRSCALRPDPDAGDELRPGRLREVSVISGLPASTSTERLDLLDDARRAFGFTITGGAHRLANYRSVTTVSELAPAAPAKICTVVLESYVVDVPEGNSEEDTRLFADTVVRLNLQKLKSLAEANATSAAAQATPPPQAE
B3: H6-SUMO-tagged FePYR1 E160A (protein)
chain: B2 chain with A131E, E160A
B4: H6-SUMO-tagged FePYR1 R133A (protein)
chain: B2 chain with A131E, R133A
B5: H6-SUMO-tagged FePYR1 H73P (protein)
chain: B2 chain with H73P, A131E
B6: H6-SUMO-tagged FePYR1 I127V (protein)
chain: B2 chain with I127V, A131E
B7: H6-SUMO-tagged FePYR1 V182L (protein)
chain: B2 chain with A131E, V182L
B8: H6-SUMO-tagged FePYR1 L185C (protein)
chain: B2 chain with A131E, L185C
B9: H6-SUMO-tagged FePYR1 H132A (protein)
chain: B2 chain with A131E, H132A
B10: H6-SUMO-tagged FePYR1 P105A (protein)
chain: B2 chain with P105A, A131E
B11: H6-SUMO-tagged FePYR1 I75A (protein)
chain: B2 chain with I75A, A131E
B12: H6-SUMO-tagged FePYR1 E131D (protein)
chain: B2 chain with A131D
B13: H6-SUMO-tagged FePYR1 F178A (protein)
chain: B2 chain with A131E, F178A
B14: H6-SUMO-tagged FePYR1 I75V (protein)
chain: B2 chain with I75V, A131E
B15: H6-SUMO-tagged FePYR1 G103A (protein)
chain: B2 chain with G103A, A131E
B16: H6-SUMO-tagged FePYR1 N186A (protein)
chain: B2 chain with A131E, N186A
B17: H6-SUMO-tagged FePYR1 S102A (protein)
chain: B2 chain with S102A, A131E
B18: H6-SUMO-tagged FePYR1 L185A (protein)
chain: B2 chain with A131E, L185A
B19: H6-SUMO-tagged FePYR1 E111A (protein)
chain: B2 chain with E111A, A131E
B20: H6-SUMO-tagged FePYR1 K72R (protein)
chain: B2 chain with K72R, A131E
B21: H6-SUMO-tagged FePYR1 A106S (protein)
chain: B2 chain with A106S, A131E
B22: H6-SUMO-tagged FePYR1 I127A (protein)
chain: B2 chain with I127A, A131E
B23: H6-SUMO-tagged FePYR1 K72A (protein)
chain: B2 chain with K72A, A131E
B24: H6-SUMO-tagged FePYR1 L104A (protein)
chain: B2 chain with L104A, A131E

Legend:
[1] = biological target: T1, ZjPYL2 with AtHAB1 (Zoysia japonica, UniProt A0A2D1UXP2); assay: AlphaScreen, ABA-dependent receptor-PP2C interaction; type: binding
T1 construct: H6-SUMO-ZjPYL2 and biotin-MBP-AtHAB1 (172-511), E. coli; tags kept; with Protein phosphatase 2C 16 (HAB1, Arabidopsis thaliana)
T1 sequence (A0A2D1UXP2 1-216): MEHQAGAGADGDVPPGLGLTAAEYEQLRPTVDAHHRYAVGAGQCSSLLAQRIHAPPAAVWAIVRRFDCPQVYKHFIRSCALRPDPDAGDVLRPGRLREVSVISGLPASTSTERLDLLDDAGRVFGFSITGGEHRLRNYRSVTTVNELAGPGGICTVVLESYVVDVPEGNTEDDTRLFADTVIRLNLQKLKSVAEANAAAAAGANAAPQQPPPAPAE
T1 sequence (Q9CAJ0 172-511 partner): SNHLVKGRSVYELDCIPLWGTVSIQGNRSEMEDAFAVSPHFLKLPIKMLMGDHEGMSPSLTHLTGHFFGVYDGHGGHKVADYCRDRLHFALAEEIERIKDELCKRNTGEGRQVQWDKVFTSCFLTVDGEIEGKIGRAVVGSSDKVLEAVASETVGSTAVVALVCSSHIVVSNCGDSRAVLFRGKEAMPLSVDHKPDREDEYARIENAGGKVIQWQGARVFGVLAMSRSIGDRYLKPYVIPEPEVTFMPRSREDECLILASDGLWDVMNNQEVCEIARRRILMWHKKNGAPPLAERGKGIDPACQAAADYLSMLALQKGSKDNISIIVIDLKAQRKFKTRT
Source text: AlphaScreen, ABA-dependent receptor-PP2C interaction on ZjPYL2 with AtHAB1 | EC50 values of FePYL1, FePYR1, ZjPYL2 in interacting with AtHAB1

[2] = biological target: T2, FePYR1-ABA-AtHAB1 (Festuca elata, UniProt A0A2D1UXN2); assay: as above; type: binding
T2 construct: H6-SUMO-FePYR1 and biotin-MBP-AtHAB1 (172-511), E. coli; tags kept for AlphaScreen; with Protein phosphatase 2C 16 (HAB1, Arabidopsis thaliana)
T2 sequence (A0A2D1UXN2 1-212): B2 chain with A131E
T2 sequence (Q9CAJ0 172-511 partner): T1 sequence (Q9CAJ0 172-511 partner)
Source text: AlphaScreen, ABA-dependent receptor-PP2C interaction on FePYR1-ABA-AtHAB1 | EC50 values of FePYL1, FePYR1, ZjPYL2 in interacting with AtHAB1

[3] = biological target: T3, FePYL1 with AtHAB1 (Festuca elata, UniProt A0A2D1UXN6); assay: as above; type: binding
T3 construct: H6-SUMO-FePYL1 and biotin-MBP-AtHAB1 (172-511), E. coli; tags kept; with Protein phosphatase 2C 16 (HAB1, Arabidopsis thaliana)
T3 sequence (A0A2D1UXN6 1-204): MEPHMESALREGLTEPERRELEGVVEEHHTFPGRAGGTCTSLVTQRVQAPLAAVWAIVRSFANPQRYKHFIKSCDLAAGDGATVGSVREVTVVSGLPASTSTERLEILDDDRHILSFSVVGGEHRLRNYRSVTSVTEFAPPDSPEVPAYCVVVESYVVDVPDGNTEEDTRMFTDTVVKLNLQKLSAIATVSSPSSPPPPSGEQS
T3 sequence (Q9CAJ0 172-511 partner): T1 sequence (Q9CAJ0 172-511 partner)
Source text: AlphaScreen, ABA-dependent receptor-PP2C interaction on FePYL1 with AtHAB1 | EC50 values of FePYL1, FePYR1, ZjPYL2 in interacting with AtHAB1

[4] = biological target: T4, AtPYR1 (Arabidopsis thaliana, UniProt O49686); assay: ABA binding assay in supplement (method not given); conditions: affinity reported comparable to FePYR1
T4 construct: gene PYR1; homodimer
T4 sequence (O49686 9-182): B1 chain

[5] = biological target: T5, AtPYR1 with AtHAB1 (Arabidopsis thaliana, UniProt O49686); assay: AlphaScreen, ABA-dependent receptor-PP2C interaction; type: binding
T5 construct: gene PYR1; H6-SUMO-AtPYR1 (9-182) and biotin-MBP-AtHAB1 (172-511), E. coli; tags kept; with Protein phosphatase 2C 16
T5 sequence (O49686 9-182): B1 chain
T5 sequence (Q9CAJ0 172-511 partner): T1 sequence (Q9CAJ0 172-511 partner)

[6] = biological target: the molecule itself; assay: SEC; HPLC size-exclusion column chromatography with or without (+)-ABA; 43 kD protein marker
[7] = biological target: T6, biotin-MBP-tagged AtHAB1 (residues 172-511), Q9CAJ0; assay: AlphaScreen; conditions: chain shown with the change, read off a plot
T6 chain: T1 sequence (Q9CAJ0 172-511 partner)

[8] = ABA (10 μM), parent: est. 12000
[9] = ABA (100 μM), parent: est. 8400
[10] = DMSO (no ABA), parent: est. 2200

Molecule	response (photon counts) [7, 9]	response (photon counts) ([7]; ABA (5 μM), parent: est. 17000)	response (photon counts) [7, 10]	other results
CC1=CC(=O)CC(C)(C)C1(O)/C=C/C(C)=C\C(=O)O (stereo in doubt) [(+)-ABA]				EC50 [1]: 3.73 µM; EC50 [2]: 2300 nM; EC50 [3]: 671 nM; ABA binding assay in supplement (method not given) [4]: the binding affinity with ABA ... are comparable between these two ABA receptors; EC50 [5]: 7.36 µM
B1				stoichiometry N [6]: 2
B2	7500			response (photon counts) ([7]; ABA (2 μM), parent: est. 6900): 4100; response (photon counts) [7, 8]: 8000
B3	9000			response (photon counts) ([7]; ABA (2 μM), parent: est. 6900): 2600; response (photon counts) [7, 8]: 4900
B4	3900			response (photon counts) ([7]; ABA (2 μM), parent: est. 6900): 600; response (photon counts) [7, 8]: 2300
B5		15000	2000	
B6		17000	2200	
B7		3300	2000	
B8		16000	2200	
B9	650			
B10	5700			response (photon counts) ([7]; ABA (2 μM), parent: est. 6900): 1400; response (photon counts) [7, 8]: 3300
B11		9600	2600	
B12		18000	1900	
B13	2500			
B14		16000	2100	
B15	2800			response (photon counts) ([7]; ABA (2 μM), parent: est. 6900): 700; response (photon counts) [7, 8]: 1800
B16	5800			response (photon counts) ([7]; ABA (2 μM), parent: est. 6900): 1200; response (photon counts) [7, 8]: 3900
B17	5800			response (photon counts) ([7]; ABA (2 μM), parent: est. 6900): 750; response (photon counts) [7, 8]: 3000
B18		18000	2300	
B19	800			
B20	1300			
B21	2100			
B22		9500	2100	
B23	1200			
B24	2500			

Reference: PMC5656587, “Structure determination and activity manipulation of the turfgrass ABA receptor FePYR1” (Scientific Reports, 2017)
